# Measurements as given in patent publication US20200199647A1 (published 2020).
# Where two headings read alike, the source gives them in different places.
# B1: R15B^C (human PPP1R15B amino acids 636-698, N-terminal MBP-tag, C-terminal His6-tag) (other)
# chain: VKRKKVTFLEEVTEYYISGDEDRKGPWEEFARDGCRFQKRIQETEDAIGYCLTFEHRERMFNRHHHHHH
# B2: R15B (human PPP1R15B amino acids 340-698, N-terminal MBP-tag, C-terminal His6-tag) (other)
# chain: RDNPTQFVPAAGDIPGNTQESTEEKIELLTTEVPLALEEESPSEGCPSSEIPMEKEPGEGRISVVDYSYLEGDLPISARPACSNKLIDYILGGASSDLETSSDPEGEDWDEEAEDDGFDSDSSLSDSDLEQDPEGLHLWNSFCSVDPYNPQNFTATIQTAARIVPEEPSDSEKDLSGKSDLENSSQSGSLPETPEHSSGEEDDWESSADEAESLKLWNSFCNSDDPYNPLNFKAPFQTSGENEKGCRDSKTPSESIVAISECHTLLSCKVQLLGSQESECPDSVQRDVLSGGRHTHVKRKKVTFLEEVTEYYISGDEDRKGPWEEFARDGCRFQKRIQETEDAIGYCLTFEHRERMFNRHHHHHH
# Legend:
# [1] = target: T1, PP1c (human PP1cα amino acids 7-330, N-terminal Thio6/His6 tag) (human, UniProt P62136 7-330); assay: thermophoresis
# T1 sequence (P62136 other isoform, or with tags, fused parts or gaps): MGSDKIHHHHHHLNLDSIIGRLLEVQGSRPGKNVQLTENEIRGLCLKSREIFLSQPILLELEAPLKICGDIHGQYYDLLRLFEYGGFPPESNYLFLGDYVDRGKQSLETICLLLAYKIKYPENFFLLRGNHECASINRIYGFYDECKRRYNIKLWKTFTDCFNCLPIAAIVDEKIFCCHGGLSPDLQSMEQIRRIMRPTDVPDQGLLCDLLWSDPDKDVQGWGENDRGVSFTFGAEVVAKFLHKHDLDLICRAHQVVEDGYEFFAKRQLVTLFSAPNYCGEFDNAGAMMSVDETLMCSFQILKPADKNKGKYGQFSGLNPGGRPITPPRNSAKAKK
# [2] = target: T1, PP1c (human PP1cα amino acids 7-330, …); assay: thermophoresis; remark: listed apart in the source
Binder,Kd [1] [nM],Kd [2] [nM]
B1,960,–
B2,–,900
